Our source for the kon values is PMC6698660.

The experiment concerns the target His-tagged Sinorhizobium meliloti DnaN (β-sliding clamp) (Sinorhizobium meliloti). Kind of experiment: BLI. (In general: Biolayer interferometry detects binding as a change in optical thickness at a sensor tip.)

By kon is commonly meant the second-order rate constant of association. Read a low kon as slow association. With “MBP-Flag-IEP fusion protein (MF-IEP) of the RmInt1 intron, made in E. coli (natural protein)”, the kon is 82000 M⁻¹ s⁻¹.
In turn, “MF-IEP104 (MF-IEP carrying substitution L104A) (natural protein)” displayed a kon of 44000 M⁻¹ s⁻¹.
